# In publication PMC7093966:
# Target: FITC-Aβ42 (UniProt P05067)
# Experiment: solid-phase fluorescence binding assay (FITC-peptide on coated plate); black 96-well plates coated with 50 μg/mL rat-tail collagen-I or 10% BSA; 1 μM FITC-Aβ42 in RPMI with or without 200 μg/mL HDL (total, apoE-depleted or apoE-enriched) or BSA; 24 h at 37 °C, 5% CO2; PBS washes; excitation 490 nm, emission 520 nm
# Sequence of FITC-Aβ42 (P05067 672-713): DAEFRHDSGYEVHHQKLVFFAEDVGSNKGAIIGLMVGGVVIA
# Sequence of High density lipoprotein (HDL), density 1.063-1.21 g/mL (P02649 whole entry, looked up): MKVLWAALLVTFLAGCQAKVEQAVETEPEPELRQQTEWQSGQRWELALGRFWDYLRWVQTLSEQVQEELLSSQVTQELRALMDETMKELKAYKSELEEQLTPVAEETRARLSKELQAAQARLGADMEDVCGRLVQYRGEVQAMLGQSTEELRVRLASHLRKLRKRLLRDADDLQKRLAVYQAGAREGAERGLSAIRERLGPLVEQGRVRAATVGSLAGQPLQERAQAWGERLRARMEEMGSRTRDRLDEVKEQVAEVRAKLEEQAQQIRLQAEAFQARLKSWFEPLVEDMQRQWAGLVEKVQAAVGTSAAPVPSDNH
# Sequence of High density lipoprotein (HDL), density 1.063-1.21 g/mL (P02652 whole entry, looked up): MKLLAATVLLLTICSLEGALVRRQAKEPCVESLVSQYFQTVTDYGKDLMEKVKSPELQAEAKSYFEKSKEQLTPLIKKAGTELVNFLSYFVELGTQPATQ
# Sequence of High density lipoprotein (HDL), density 1.063-1.21 g/mL (P02647 whole entry, looked up): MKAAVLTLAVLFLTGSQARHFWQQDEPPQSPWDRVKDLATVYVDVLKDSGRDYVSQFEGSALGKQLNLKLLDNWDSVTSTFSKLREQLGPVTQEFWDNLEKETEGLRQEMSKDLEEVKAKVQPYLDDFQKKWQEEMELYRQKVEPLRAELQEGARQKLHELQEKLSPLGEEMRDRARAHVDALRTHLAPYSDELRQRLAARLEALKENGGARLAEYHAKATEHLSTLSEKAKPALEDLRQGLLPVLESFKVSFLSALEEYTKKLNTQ
substance,measurement,value
"High density lipoprotein (HDL), density 1.063-1.21 g/mL (from UniProt P02647 19-267; P02652 19-100; P02649 19-317) (complex)",fold reduction of Aβ42 binding to BSA,11.8 fold
same,fold reduction of Aβ42 binding to collagen-I,7 fold
